Test: Ocular tissue drug concentration by ELISA after implantation of loaded intraocular device
Type: in vivo, New Zealand white rabbits
Conditions: intraocular device loaded with Avastin implanted in lens capsule after lens extraction, 1 week post implantation
Description: Three intraocular devices were implanted into eyes of New Zealand white rabbits under general anesthesia after lens extraction (phacoemulsification technique). Two of the devices were loaded with Avastin® (bevacizumab) and one was loaded with the contrast agent gadolinium-labeled albumin (Galbumin™) as a control. Proper intraocular device position was verified by MRI as well as clinical examination.
The rabbits were sacrificed and the eyes are removed and assayed after 1 week post implantation. Bevacizumab (Avastin®) was detected by ELISA in the retina and vitreous at concentrations of 24-48 mcg/mL, and was not present in the control rabbit eye.

Substance: bevacizumab [Bevacizumab (Avastin®)]
- concentration detected by ELISA in the retina and vitreous: 24000 to 48000 ng/mL

— US20150100046A1, “INTRAOCULAR DRUG DELIVERY DEVICE AND ASSOCIATED METHODS” (priority 2013, published 2015)
